Data on one molecule can be found in paper PMC4670825.

One series addresses NF-κB RelA (p65) (UniProt Q04206 1-551). Kind of series: fluorescence anisotropy. In general terms: In fluorescence polarisation assays a small probe gives low polarisation when free and higher when bound to something large.
The target of another series is FOXO3 (UniProt O43524 1-673). Kind of series: fluorescence anisotropy.
Sequence of FOXO3 (O43524 whole entry): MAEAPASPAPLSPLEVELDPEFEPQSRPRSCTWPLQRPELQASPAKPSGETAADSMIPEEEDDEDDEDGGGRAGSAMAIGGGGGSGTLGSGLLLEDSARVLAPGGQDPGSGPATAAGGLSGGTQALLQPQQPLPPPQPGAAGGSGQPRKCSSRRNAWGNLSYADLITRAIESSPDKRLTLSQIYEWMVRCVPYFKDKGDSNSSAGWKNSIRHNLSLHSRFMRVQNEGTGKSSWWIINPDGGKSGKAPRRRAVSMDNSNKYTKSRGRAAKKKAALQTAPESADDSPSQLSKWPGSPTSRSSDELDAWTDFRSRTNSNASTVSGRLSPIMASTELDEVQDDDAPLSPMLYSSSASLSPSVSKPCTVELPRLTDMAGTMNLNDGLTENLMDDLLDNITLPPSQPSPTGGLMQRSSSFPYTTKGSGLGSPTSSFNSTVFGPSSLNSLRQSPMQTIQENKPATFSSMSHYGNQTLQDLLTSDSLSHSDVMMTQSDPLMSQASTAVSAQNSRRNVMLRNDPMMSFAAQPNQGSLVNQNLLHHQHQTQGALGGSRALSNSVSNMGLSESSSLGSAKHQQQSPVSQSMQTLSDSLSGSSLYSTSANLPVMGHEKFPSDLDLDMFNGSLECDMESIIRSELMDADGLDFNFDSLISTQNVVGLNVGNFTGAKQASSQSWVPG

Sequence of NF-κB RelA (p65) (Q04206 whole entry): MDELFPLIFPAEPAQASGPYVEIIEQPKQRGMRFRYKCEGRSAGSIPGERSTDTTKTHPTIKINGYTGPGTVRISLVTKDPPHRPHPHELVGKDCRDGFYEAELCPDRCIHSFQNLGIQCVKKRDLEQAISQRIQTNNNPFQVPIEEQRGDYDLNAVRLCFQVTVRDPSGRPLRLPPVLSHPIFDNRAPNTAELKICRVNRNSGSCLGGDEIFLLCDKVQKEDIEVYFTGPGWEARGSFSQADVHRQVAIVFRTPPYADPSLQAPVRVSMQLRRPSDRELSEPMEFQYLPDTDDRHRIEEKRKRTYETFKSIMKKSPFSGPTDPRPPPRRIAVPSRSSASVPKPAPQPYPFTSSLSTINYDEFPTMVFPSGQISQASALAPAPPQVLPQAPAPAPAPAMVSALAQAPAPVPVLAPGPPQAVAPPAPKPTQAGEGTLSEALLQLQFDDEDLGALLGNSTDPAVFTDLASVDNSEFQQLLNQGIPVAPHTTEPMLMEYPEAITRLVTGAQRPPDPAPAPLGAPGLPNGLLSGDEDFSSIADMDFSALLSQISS

B1: FOXO3 consensus duplex (dsDNA)
DNA 1: CGCATCCTATGTAAACAACTCGAGTC
DNA 2: GACTCGAGTTGTTTACATAGGATGCG
As to B1, the binding result is reported as “no binding” with NF-κB RelA (p65) and “binds” in the series with FOXO3.
